According to the DeepSol protein solubility set:

Experiment: soluble on expression in E. coli; label from the status in PepcDB or PDB records

**Q.** With “MATLFIADLHLCAEEPAITAGFLRFLAGEARKADALYILGDLFEAWIGDDDPNPLHHQMAAAIKAVSDSGVPCYFIHGNRDFLLGKRFARESGMTLLPEEKVLELYGRRVLIMHGDTLCTDDAGYQAFRAKVHKPWLQTLFLALPLFVRKRIAARMRANSKEANSSKSLAIMDVNQNAVVSAMEKHQVQWLIHGHTHRPAVHELIANQQTAFRVVLGAWHTEGSMVKVTADDVELIHFPF” as the sequence, how does the “soluble on expression in E. coli” value read?
**A.** soluble

**Q.** With “MGSDKIHHHHHHYATPEEYYKATGKKITEYHESPMLTKLVEEGKLPPVEQRLPEEPLVVQPVEKVGQFGGTWRRVWKGPSDRWGISKLIEVKLAFWDKEGGKLVPGLAKSWEVLENGRVYIFHLRKGVKWSDGAPYTAHDIVFWVNDIVGNDDITPSKPDWYNIGVKVEALDDYTVKFEFSKPYGLFLLKVPYGGFTGAPAHYLKQFHPKYTPMEEIEKKMVEGVHNTWVDLFNDKNDFLENTELPTLSPWKPITDPTEQFYILERNPYFWAVDIEGNQLPYIDYVRHEYVKNDEVILLKAISGEIDMQWRHIGGLGAGAGNFTLLMENSQSGGYRVLKWIAANGSASRISLNYAHSDEVLRKVFNDVRFRQALSLAINREEINEILFNGLAEPRQASLVSGSPYFDPEWEKAYAEYDPDRANKLLDEMGLKWDDKHEYRLLPDGRPLRFTITVTGQFHVDVWTMVKEYWKQIGVWVEIENLERSLFYERADAGDFDAMVWNMDRAAQPLSSPMVIFPGSENIADFWYIGWSGWISYYIDKNIRGVEPEEVPEGPEPPEVVYRLVDLYYQIASTPDPDKIKELMAEATKIHRENLWMIGTVGEDLSPAIAKNNFRNVPEFLVTDDVLRTPLNAMPMQFFIEQK” as the sequence, how does the “soluble on expression in E. coli” value read?
**A.** not soluble

**Q.** With “MAHHHHHHMENLYFQGMSSFLPEGGCYELLTVIGKGFEDLMTVNLARYKPTGEYVTVRRINLEACSNEMVTFLQGELHVSKLFNHPNIVPYRATFIADNELWVVTSFMAYGSAKDLICTHFMDGMNELAIAYILQGVLKALDYIHHMGYVHRSVKASHILISVDGKVYLSGLRSNLSMISHGQRQRVVHDFPKYSVKVLPWLSPEVLQQNLQGYDAKSDIYSVGITACELANGHVPFKDMPATQMLLEKLNGTVPCLLDTSTIPAEELTMSPSRSVANSGLSDSLTTSTPRPSNGDSPSHPYHRTFSPHFHHFVEQCLQRNPDARPSASTLLNHSFFKQIKRRASEALPELLRPVTPITNFEGSQSQDHSGIFGLVTNLEELEVDDWEF” as the sequence, how does the “soluble on expression in E. coli” value read?
**A.** soluble

**Q.** With “MASYRVAALYRFTRFEDPAAIQGPLAALCCSLGVKGTLLLAREGINGTIAGEDAAIEAVLAHIRALPGCADLTPKTAWAERMPFYRMKVRLKKEIVTLGEPDLDPTDAGTYVEPADWNALISDPDVLVIDTRNAYEVAVGRFEGAIDPQTASFADFPAWFRDWRKSVEAQRGPEAPLKVAMYCTGGIRCEKSTAFLKAEGVEQVFHLKGGVLDYLEQIPQPESLWRGECFVFDERVSVGHGLVKGDHVLCRGCRMPVSPQDQASPLYVEGVACPACHDQRNEEQKARAAERHRQVLHCEALGVDHVGATLPTKIDLEHHHHHH” as the sequence, how does the “soluble on expression in E. coli” value read?
**A.** not soluble

**Q.** For “MGHHHHHHENLYFQSHLYFQSHMTDCEFGYIYRLAQDYLQCVLQIPQPGSGPSKTSRVLQNVAFSVQKEVEKNLKSCLDNVNVVSVDTARTLFNQVMEKEFEDGIINWGRIVTIFAFEGILIKKLLRQQIAPDVDTYKEISYFVAEFIMNNTGEWIRQNGGWENGFVKKFEPK”, which “soluble on expression in E. coli” value is on record?
**A.** soluble

**Q.** With “MNKQIDLPIADVQGSLDTRHIAIDRVGIKAIRHPVVVADKGGGSQHTVAQFNMYVNLPHNFKGTHMSRFVEILNSHEREISVESFEEILRSMVSRLESDSGHIEMAFPYFINKSAPVSGVKSLLDYEVTFIGEIKHGNQYSFTMKVIVPVTSLCPCSKKISDYGAHNQRSHVTISVRTNSFIWIEDIIRIAEEQASCELYGLLKRPDEKYVTERAYNNPKFVEDIVRDVAEVLNHDDRIDAYIVESENFESIHNHSAYALIERDKRIR” as the sequence, how does the “soluble on expression in E. coli” value read?
**A.** soluble

**Q.** With “MSDRIASEKLRSKLMSADEAAQFVNHGDKVGFSGFTGAGYPKALPTAIANRAKEAHGAGNDYAIDLFTGASTAPDCDGVLAEADAIRWRMPYASDPIMRNKINSGSMGYSDIHLSHSGQQVEEGFFGQLNVAVIEITRITEEGYIIPSSSVGNNVEWLNAAEKVILEVNSWQSEDLEGMHDIWSVPALPNRIAVPINKPGDRIGKTYIEFDTDKVVAVVETNTADRNAPFKPVDDISKKIAGNFLDFLESEVAAGRLSYDGYIMQSGVGNVPNAVMAGLLESKFENIQAYTEVIQDGMVDLIDAGKMTVASATSFSLSPEYAEKMNNEAKRYRESIILRPQQISNHPEVIRRVGLIATNGLIEADIYGNVNSTNVSGSRVMNGIGGSGDFTRNGYISSFITPSEAKGGAISAIVPFASHIDHTEHDVMVVISEYGYADLRGLAPRERVAKMIGLAHPDYRPLLEEYYARATSGDNKYMQTPHDLATAFDFHINLAKNGSMKA” as the sequence, how does the “soluble on expression in E. coli” value read?
**A.** soluble

**Q.** Which “soluble on expression in E. coli” value does the source give for “MEVSKIRIHDLPEEERPRERLIKNGPESLSNAELLGIVLRTGSREENVISLCSRILMEYNIKQLSLANVSKLMQVNGIGKAKAAQIAAVFELARRLETFVEEPKRKISSPKDVYTLMYPKMREQKKEKFITLYLDTKNQILKEEVVSIGSLNASIVHPREVFKSALMESSASVIMVHNHPSGDPSPSREDIMVTEKLVEGGKLLGIDILDHIIIGDGRYVSLKDEGFVK” here?
**A.** not soluble

**Q.** For “MGSDKIHHHHHHMMDARRNGLVLLALLLLTQTTISAQTDSMGKDVPIDSVSVATSDSLQTKRGFFKKFLDYFNDANKEKKNKKFDFSVIGGPHYSSDTKFGLGLVAAGLYRTDRNDSILPPSNVSLYGDVSTVGFYLLGVRGNHLFPQEKYRLNYNLYFYSFPSLYWGRGYDNGANSDNESDYKRFQAQVKVDFMFRVAKSFYIGPMAVFDYIDGRDFEKPELWEGMSARTTNTSLGLSLLYDSRDFLTNAYQGYYLRIDQRFSPAFLGNKYAFSSTELTTSYYHPVWKGGVLAGQFHTLLNYGNPPWGLMATLGSSYSMRGYYEGRYRDKCAMDAQIELRQHIWKRNGVAVWAGAGTVFPRFSDFTPKHILPNYGFGYRWEFKKRVNVRLDLGFGKHQTGFIFNINEAF”, which “soluble on expression in E. coli” value is on record?
**A.** not soluble

**Q.** Which “soluble on expression in E. coli” value does the source give for “MFLYTETDQNLQACIDACNHCYRTCLRMAMNHCLEAGGKHVEADHLRLMMNCAEICQTSLNFMLSGSRFSPKVCGVCAEICDACAKSCEQLDGMEECVQTCRQCAEHCRKMAALEHHHHHH” here?
**A.** soluble

**Q.** With “MGYPVILHLRGRRAVVVGGGKVAARKIHGLLEAGAEIVMIAPEAEPELQALAAGGMIVWKKKRFDPDDLAEAFLVIAATNDRKVNEAVTQAASSGQLVNVVDDPERCDFHVPAVIRRGPLTIAVSTGGASPAVARRIRRELEEKYGEEYRPYLEFLQRARGIVLREVEDAEGRKRLFQALAADSFRQSGRWEEEFTRLLAKEKERNKEGERGR” as the sequence, how does the “soluble on expression in E. coli” value read?
**A.** soluble

**Q.** Which “soluble on expression in E. coli” value does the source give for “MIEGKTLVVNPFIGGSAKNITDEQYISILKKIKEKMPDLNIIITSYTTDEERTEKLCKDIGKDKIFAFSNGASILNTASIIDRADVYFGASTGPTHIAGALGKKIVAIYPHKKTQSPTRWGVLGNSNVRYIIPDENNPNEDYKNPYLEHHHHHH” here?
**A.** not soluble

**Q.** With “MPEKYTTPYPARRIHSDGRAEDTEVLLAKECPVKLFLDGKQFTTLFASPLELKELAVGHLITEGILSFKEIAGVEVEGNEVHILTLKGKHPIQDESSRPAGGETKKQIFVNSDAVFDPEALFEGIAYLESDTYKLTRGTHLAALIDKKGKLAVQIVDVGRHNAVDKVVGAAFLRMIDLSQHYMLSTGRQPAYMVTKAARAGIPLVATKAMPFDSGVEAAKKANLCLVGQLRKESMLVFTNEWRVRIAAALEHHHHHH” as the sequence, how does the “soluble on expression in E. coli” value read?
**A.** not soluble

**Q.** Which “soluble on expression in E. coli” value does the source give for “RVSNEFPPREYIATVYNRICNYLQIGEGEGFERSFDFDIDAFCRNFRMFPTQVLAAIRILDVAGIWEYREEKTRSRLTIQVQRDELYRMRSEQASDSVLTALMRTYDGLFADYVSIVESELAEKTGLSVDQVYQQLLLLNKAGIVNYIPQKNLPRIYFLTRREDAELLQIPRAAYEDRRDRLKARIDQSLRYIEEENTCRSRMLLAYFGEEQSHNCKLCDVCLRRKDGELHHHEVDDLLHFLEQRLTEETPYVLIADICRELHHHPDVVLKAIRFVMKESWQYSTDGDTVFLTHKLPGGLNL” here?
**A.** not soluble

**Q.** For “MNLFFEKTGATNVAEFSVSEIAGALKRVVEEKFGYVRVRGEISGYRGAHASGHAYFALKDDKARLEAVIWRGIMEKLKFPPEEGMEVIAVGKLTTYPGSSKYQIVIEALEPTGVGALMTLLENRKKKFAEEGLFDEEKKKPLPYMPKIIGVVTSPTGAVIRDIIHRISDRFPLHILVWPVRVQGETSGREVAAAVKGFNVLPLEGLIPKPDLLIVARGGGSLEDLWGFNDEVVVRAVYESSLPVISAVGHETDWTLIDYVADWRAPTPTAAAEKAVPVKIDLEVYVVSLGARLRTGLARYFDFHQQKLRAIIRALPTADQLFALPRRGFDEISSRLERALCVSCDKKRLYFHTLAIRFTPRLLNTEKAQHSAKEYTARLHRAFVHIVEKQRAQLEIAFRLLKSTSYQNILERGFVLALGQNNKPIKRLAQIPEKEQINLRFFDGEISVITQESFFNRSSKSKRIKSKQDDQGTLF”, which “soluble on expression in E. coli” value is on record?
**A.** not soluble

**Q.** Which “soluble on expression in E. coli” value does the source give for “QLFSNNLLQENAHKYVREVIGSIPNTQVIRDQLLEENNRKHIEVVLIGATVSPAQIDSAKTKLSSYGLSGVELNIKQGFGYEQEETDVNELKSVLLKDLYDNGEKIIRNQQRQIDSLRNVLNFYNRFSSMESEIAQELQ” here?
**A.** not soluble

**Q.** For “SQVARWLGLDIPSPPIGSLFGVEIPEETGTKLEERVVDASMLSHGDLLMNLSLRDEELVILVRRGEGYRVPKGRMHLQVGDVLLIVSEKNLSQTLTSGDPENHPGLLQRLKHRLLRR”, which “soluble on expression in E. coli” value is on record?
**A.** not soluble

**Q.** Which “soluble on expression in E. coli” value does the source give for “MVKSIENVKLTKGLFYNSQKKGNDVILALDIDRLLAPYYEAANLPPKKRSYGGWEEREIRGHSLGHWLSAAAAMYETTGDKALLERIDRAVQELATIQDDVGYVGGVKRAHFDEMFSGEFQVGHFNIAGTWVPWYNLHKLFAGLIDVHQLTGHSLALTVVTKLADWAKKGTDQLTDDQFQRMLICEHGGMNEAMADLYTLTGHKDYLQLAIRFCHWAVLEPLANGIDELEGKHANTQIPKVIGAAKLFEITGDDTYRAIAEFFWRQVTNDRSYIIGGNSNSEHFGPANKETLGVETAETCNTYNMLKLTEHLFRWNRSSQLMDYYEKALYNHILASQDPDSGMKTYFVSLQPGHFKVYSSLEESFWCCFGTGLENPARYTRTIYDRDDRHIYVNLFMASEIHLKDLQVQIRQETNFPETDRTKLTFVKADGVSIKLHIRVPEWVAGPVTARINGKETFSESGADYLTIEREWQKGDEIEVHLPMELRIYEAKDDSHKVGIMYGPIVLAGTFGKDHFPETDIVPNHLSLHNHPLIDVPTLVATKKTPDQWIHPVEGRSLTFRTAAIGQPGNVQITLIPFYALHHERYTVYWNLMSEVEYEAFKARKEVESDQLQARTVDAVQPGEQQPEVEHQLKANHSETGYLNIMQKRWRDSRGEDGFFSYVMKVKPNQQMSLFVTYYGGDHGLFVDGKWCDRSFRILIDDEVIKEEQLLGKNPGETLDVYYPIPLALTEGKEEVVVTFASKEGTVAGGVYGVRMLCNLEHHHHHH” here?
**A.** soluble

**Q.** With “MSLQAKIKNKRVLVKFSGEALAGDNQFGIDIHVLDHIAKEIKSLVENDIEVGIVIGGGNIIRGVSAAQGGIIRRTSGDYMGMLATVINAVAMQEALEHIGLDTRVQSAIEIKEICESYIYRKAIRHLEKGRVVIFGAGTGNPFFTTDTAATLRAIEIGSDLIIKATKVDGIYDKDPNKFKDAKKLDTLSYNDALIGDIEVMDDTAISLAKDNKLPIVVCNMFKKGNLLQVIKHQQGVFSMVKEGHHHHHH” as the sequence, how does the “soluble on expression in E. coli” value read?
**A.** soluble
